Drawing on patent US20230193513A1 (published 2023), this text covers EC50 for one molecule.

The assay concerns the target T1, flag-GLP1R-GFP expressed on CHO cells (UniProt P43220 24-463).
T1 chain: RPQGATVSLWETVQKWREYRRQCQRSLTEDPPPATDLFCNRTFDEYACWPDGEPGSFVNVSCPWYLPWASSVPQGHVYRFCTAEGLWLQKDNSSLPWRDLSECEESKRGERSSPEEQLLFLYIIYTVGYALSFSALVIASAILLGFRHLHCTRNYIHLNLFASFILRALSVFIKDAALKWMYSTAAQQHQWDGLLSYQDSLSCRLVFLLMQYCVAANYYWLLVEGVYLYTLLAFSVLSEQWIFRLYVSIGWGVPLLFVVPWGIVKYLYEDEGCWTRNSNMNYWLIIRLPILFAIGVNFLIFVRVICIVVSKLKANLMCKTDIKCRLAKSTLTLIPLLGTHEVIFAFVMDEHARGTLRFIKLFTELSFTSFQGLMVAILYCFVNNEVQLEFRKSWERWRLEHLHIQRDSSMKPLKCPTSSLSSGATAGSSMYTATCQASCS
Briefly: FACS cell binding.

B1: GLP1R-242 (antibody)
heavy: QVQLVQSGAEVKKPGSSVKVSCKASGGTFSSYEISWVRQAPGQGLEWMGGIIPILGIANYAQKFQGRVTITADESTSTAYMELSSLRSEDTAVYYCAKHMSMQADTGTFTSDVSSYLEGQAAKEFIAWLVKGEFSSRADLVGDAFDVWGQGTLVTVSSASASTKGPSVFPLAPCSRSTSESTAALGCLVKDYFPEPVTVSWNSGALTSGVHTFPAVLQSSGLYSLSSVVTVPSSNFGTQTYTCNVDHKPSNTKVDKTVERKCCVECPPCPAPPVAGPSVFLFPPKPKDTLMISRTPEVTCVVVDVSHEDPEVQFNWYVDGVEVHNAKTKPREEQFNSTFRVVSVLTVVHQDWLNGKEYKCKVSNKGLPAPIEKTISKTKGQPREPQVYTLPPSREEMTKNQVSLTCLVKGFYPSDIAVEWESNGQPENNYKTTPPMLDSDGSFFLYSKLTVDKSRWQQGNVFSCSVMHEALHNHYTQKSLSLSPG
light: QSVLTQPPSVSAAPGQKVTISCSGSSSNIENNDVSWYQQLPGTAPKLLIYGNDQRPSGIPDRFSGSKSGTSATLGITGLQTGDEADYYCGTWDNTLSAGVFGGGTKLTVLGQPKAAPSVTLFPPSSEELQANKATLVCLISDFYPGAVTVAWKADSSPVKAGVETTTPSKQSNNKYAASSYLSLTPEQWKSHRSYSCQVTHEGSTVEKTVAPTECS
In general, EC50 refers to the concentration at which the effect is half-maximal. A lower EC50 goes with higher potency in that assay. As for B1, the EC50 was 27.7 nM.
